# According to patent publication US20200262916A1, “Mammalian Atg8 Proteins Control Autolysosomal Biogenesis Through SNARES” (STC. UNM, priority 2019, published 2020):
# T1: VPS41 (endogenous) (UniProt P49754 1-854, limits assumed)
# T1 construct: also called HOPS component VPS41
# T1 sequence (looked up): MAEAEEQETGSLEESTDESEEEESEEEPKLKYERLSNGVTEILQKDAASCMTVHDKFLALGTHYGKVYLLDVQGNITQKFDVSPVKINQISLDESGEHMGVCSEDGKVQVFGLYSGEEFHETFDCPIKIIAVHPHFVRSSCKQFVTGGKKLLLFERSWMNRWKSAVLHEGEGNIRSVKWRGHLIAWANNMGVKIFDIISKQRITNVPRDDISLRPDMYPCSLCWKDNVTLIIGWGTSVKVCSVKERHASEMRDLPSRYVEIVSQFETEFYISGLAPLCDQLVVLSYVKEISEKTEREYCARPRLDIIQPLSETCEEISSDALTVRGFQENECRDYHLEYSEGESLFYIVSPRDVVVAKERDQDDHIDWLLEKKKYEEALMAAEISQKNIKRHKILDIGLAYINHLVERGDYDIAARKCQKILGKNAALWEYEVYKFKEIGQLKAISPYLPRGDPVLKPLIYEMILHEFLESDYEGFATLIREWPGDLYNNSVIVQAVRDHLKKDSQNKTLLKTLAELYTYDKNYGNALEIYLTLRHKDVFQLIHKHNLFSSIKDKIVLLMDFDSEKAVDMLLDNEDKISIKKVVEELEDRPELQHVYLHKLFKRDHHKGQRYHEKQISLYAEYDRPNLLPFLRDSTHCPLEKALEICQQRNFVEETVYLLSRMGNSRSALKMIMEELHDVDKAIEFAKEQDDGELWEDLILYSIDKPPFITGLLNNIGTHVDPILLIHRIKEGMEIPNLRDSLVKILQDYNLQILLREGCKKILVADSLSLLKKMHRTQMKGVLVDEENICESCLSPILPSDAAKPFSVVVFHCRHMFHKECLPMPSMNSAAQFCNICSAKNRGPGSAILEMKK
# T2: VPS33A (endogenous, a component of the HOPS complex) (UniProt Q96AX1 1-596)
# T2 sequence (looked up): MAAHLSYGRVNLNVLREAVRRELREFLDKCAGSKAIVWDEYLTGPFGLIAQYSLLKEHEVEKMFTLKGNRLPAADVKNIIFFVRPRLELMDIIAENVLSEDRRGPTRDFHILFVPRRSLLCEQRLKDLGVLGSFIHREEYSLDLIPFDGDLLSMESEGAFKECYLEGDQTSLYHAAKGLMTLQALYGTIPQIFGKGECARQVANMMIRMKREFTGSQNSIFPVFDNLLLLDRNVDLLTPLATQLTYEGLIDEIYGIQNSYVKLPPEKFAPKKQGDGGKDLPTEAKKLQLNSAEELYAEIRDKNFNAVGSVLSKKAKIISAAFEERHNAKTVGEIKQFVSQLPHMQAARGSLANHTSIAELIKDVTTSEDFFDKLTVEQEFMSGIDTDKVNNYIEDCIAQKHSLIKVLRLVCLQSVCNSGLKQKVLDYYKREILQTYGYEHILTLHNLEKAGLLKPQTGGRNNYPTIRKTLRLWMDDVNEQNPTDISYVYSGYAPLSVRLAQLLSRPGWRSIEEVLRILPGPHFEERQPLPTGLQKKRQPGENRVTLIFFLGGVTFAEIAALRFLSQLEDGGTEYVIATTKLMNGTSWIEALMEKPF
# How the values were obtained:
# [1] = test system: HeLa cells stably expressing YFP-Parkin; assay: Parkin-dependent mitophagy, HCM quantification of mitochondrial DNA (mtDNA); assay type: cell-based; conditions: wild type HeLa-YFP-Parkin cells; CCCP 10 μM or oligomycin A 5 μM and antimycin A 10 μM; 16 hours
# Huh7 cells = assay: Pexophagy, Western blot of peroxisomal proteins PEX14 and PMP70; assay type: cell-based; conditions: H2O2 0.4 mM, over a period of 6 hours
# VPS41 (endogenous) = biological target: T1, VPS41 (endogenous); assay: endogenous Co-IP with mouse anti-Stx6 antibody, HeLa cells
# [2] = biological target: T2, VPS33A (endogenous, a component of the …); assay: as above
molecule,measurement,setting,value
N#CC(C#N)=NNc1cccc(Cl)c1 [CCCP],mtDNA as a measure of cellular mitochondrial content,[1],major reduction
OO [H2O2],levels of peroxisomal constituents PEX14 and PMP70,Huh7 cells,decrease
"Stx6 (endogenous, precipitated with mouse anti-Stx6 antibody from HeLa cells) (other, UniProt O43752 2-255, looked up, also called syntaxin 6) SMEDPFFVVKGEVQKAVNTAQGLFQRWTELLQDPSTATREEIDWTTNELRNNLRSIEWDLEDLDETISIVEANPRKFNLDATELSIRKAFITSTRQVVRDMKDQMSTSSVQALAERKNRQALLGDSGSQNWSTGTTDKYGRLDRELQRANSHFIEEQQAQQQLIVEQQDEQLELVSGSIGVLKNMSQRIGGELEEQAVMLEDFSHELESTQSRLDNVMKKLAKVSHMTSDRRQWCAIAILFAVLLVVLILFLVL",binding result,VPS41 (endogenous),binds
same,binding result,[2],no binding
"Vti1a (endogenous, in HeLa and U2OS cells) (other, UniProt Q96AJ9 1-217, looked up) MSSDFEGYEQDFAVLTAEITSKIARVPRLPPDEKKQMVANVEKQLEEAKELLEQMDLEVREIPPQSRGMYSNRMRSYKQEMGKLETDFKRSRIAYSDEVRNELLGDDGNSSENQRAHLLDNTERLERSSRRLEAGYQIAVETEQIGQEMLENLSHDREKIQRARERLRETDANLGKSSRILTGMLRRIIQNRILLVILGIIVVITILMAITFSVRRH",binding result,[2],no binding
